{"source": "paper PMC10349882", "about": "“High resolution structures define divergent and convergent mechanisms of archaeal proteasome activation” (Communications Biology, 2023)", "binders": {"B1": {"name": "T20S α subunit, wild type (natural protein, Thermoplasma acidophilum)", "chain": "MQQGQMAYDRAITVFSPDGRLFQVEYAREAVKKGSTALGMKFANGVLLISDKKVRSRLIEQNSIEKIQLIDDYVAAVTSGLVADARVLVDFARISAQQEKVTYGSLVNIENLVKRVADQMQQYTQYGGVRPYGVSLIFAGIDQIGPRLFDCDPAGTINEYKATAIGSGKDAVVSFLEREYKENLPEKEAVTLGIKALKSSLEEGEELKAPEIASITVGNKYRIYDQEEVKKFL", "notes": "Proteasome subunit alpha, Thermoplasma acidophilum; Subunit of m1, written alone for the subunit-subunit rows of the structures; also called proteasome α-subunit"}, "B2": {"name": "T20S α subunit L81Y (natural protein, Thermoplasma acidophilum)", "chain": "MQQGQMAYDRAITVFSPDGRLFQVEYAREAVKKGSTALGMKFANGVLLISDKKVRSRLIEQNSIEKIQLIDDYVAAVTSGYVADARVLVDFARISAQQEKVTYGSLVNIENLVKRVADQMQQYTQYGGVRPYGVSLIFAGIDQIGPRLFDCDPAGTINEYKATAIGSGKDAVVSFLEREYKENLPEKEAVTLGIKALKSSLEEGEELKAPEIASITVGNKYRIYDQEEVKKFL", "notes": "Proteasome subunit alpha, Thermoplasma acidophilum; α subunit of the mutant 20S whose cryo-EM structure is solved here; also called T20S-αL81Y; T20S L81Y"}}, "key": {"[1]": {"molecular_target": "the molecule itself", "assay": "cryo-EM structure; WT T20S, 0.5 mg/mL in 50 mM Tris pH 7.4, 150 mM NaCl; D7 symmetry; closed gate"}, "[2]": {"molecular_target": "B1", "assay": "cryo-EM structure; WT T20S, 0.5 mg/mL in 50 mM Tris pH 7.4, 150 mM NaCl; D7 symmetry; closed gate", "details": "both partners purified"}, "T20S α subunit L81Y": {"molecular_target": "B2", "assay": "cryo-EM structure; T20S-αL81Y, 0.5 mg/mL in 50 mM Tris pH 7.4, 150 mM NaCl; D7 symmetry; partially open gate", "details": "both partners purified"}, "[3]": {"molecular_target": "the molecule itself", "assay": "cryo-EM structure; T20S-αL81Y, 0.5 mg/mL in 50 mM Tris pH 7.4, 150 mM NaCl; D7 symmetry; partially open gate"}}}
{"binder": "B1", "values": [{"measurement": "binding result", "setting": "[1]", "result": "binds"}]}
{"binder": "T20S β subunit (natural protein, Thermoplasma acidophilum, UniProt P28061 9-211, looked up, Proteasome subunit beta, Thermoplasma acidophilum; Subunit of m1, written alone for the subunit-subunit rows of the structures) TTTVGITLKDAVIMATERRVTMENFIMHKNGKKLFQIDTYTGMTIAGLVGDAQVLVRYMKAELELYRLQRRVNMPIEAVATLLSNMLNQVKYMPYMVQLLVGGIDTAPHVFSIDAAGGSVEDIYASTGSGSPFVYGVLESQYSEKMTVDEGVDLVIRAISAAKQRDSASGGMIDVAVITRKDGYVQLPTDQIESRIRKLGLIL", "values": [{"measurement": "binding result", "setting": "[2]", "result": "binds"}, {"measurement": "binding result", "setting": "T20S α subunit L81Y", "result": "binds"}, {"measurement": "binding result", "setting": "[3]", "result": "binds"}]}
{"binder": "B2", "values": [{"measurement": "binding result", "setting": "[3]", "result": "binds"}]}
